{"source": "paper PMC3990689", "about": "“Identification and Characterization of ABA Receptors in Oryza sativa” (PLoS ONE, 2014)", "key": {"[1]": {"target": "OsPYL12 (Oryza sativa (japonica cultivar-group))", "assay": "static light scattering; DAWN HELLOS II (Wyatt) at 18°C; OsPYLs about 2 mg/mL; calibrated with albumin monomer standard; oligomerization state"}, "[2]": {"target": "OsPYL12 (Oryza sativa (japonica cultivar-group))", "assay": "SEC; Superdex-200 HR10/300 GL, 25 mM HEPES pH 7.0, 150 mM NaCl; 500 µL OsPYL (OD280 = 0.75) applied; oligomerization state"}, "[3]": {"target": "OsPYL12 (Oryza sativa (japonica cultivar-group))", "assay": "AUC; sedimentation velocity at 4°C, 40,000 rpm; OsPYL proteins at OD280 = 0.75; absorbance at 280 nm; oligomerization state"}, "[4]": {"target": "OsPYL1 (Oryza sativa (japonica cultivar-group))", "assay": "static light scattering; DAWN HELLOS II (Wyatt) at 18°C; OsPYLs about 2 mg/mL; calibrated with albumin monomer standard; oligomerization state"}, "[5]": {"target": "OsPYL1 (Oryza sativa (japonica cultivar-group))", "assay": "SEC; Superdex-200 HR10/300 GL, 25 mM HEPES pH 7.0, 150 mM NaCl; 500 µL OsPYL (OD280 = 0.75) applied; oligomerization state"}, "[6]": {"target": "OsPYL1 (Oryza sativa (japonica cultivar-group))", "assay": "AUC; sedimentation velocity at 4°C, 40,000 rpm; OsPYL proteins at OD280 = 0.75; absorbance at 280 nm; oligomerization state"}, "OsPYL11 (with OsPP2C09)": {"target": "T1, OsPYL11 (with OsPP2C09) (Oryza sativa, UniProt Q6I5C3)", "T1 construct": "gene PYL5; recombinant, E. coli BL21(DE3), pET-15b; OsPYL11 monomer; equals OsPYL/RCAR5 of earlier work; with Probable protein phosphatase 2C 9", "T1 sequence (Q6I5C3 1-209)": "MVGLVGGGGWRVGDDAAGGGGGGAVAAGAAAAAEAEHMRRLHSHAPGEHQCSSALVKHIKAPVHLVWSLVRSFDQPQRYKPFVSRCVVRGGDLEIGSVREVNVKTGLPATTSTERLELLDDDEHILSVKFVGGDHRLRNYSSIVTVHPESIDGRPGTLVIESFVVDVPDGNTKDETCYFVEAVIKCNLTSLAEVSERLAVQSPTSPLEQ", "T1 sequence (Q5N9N2 1-414 partner)": "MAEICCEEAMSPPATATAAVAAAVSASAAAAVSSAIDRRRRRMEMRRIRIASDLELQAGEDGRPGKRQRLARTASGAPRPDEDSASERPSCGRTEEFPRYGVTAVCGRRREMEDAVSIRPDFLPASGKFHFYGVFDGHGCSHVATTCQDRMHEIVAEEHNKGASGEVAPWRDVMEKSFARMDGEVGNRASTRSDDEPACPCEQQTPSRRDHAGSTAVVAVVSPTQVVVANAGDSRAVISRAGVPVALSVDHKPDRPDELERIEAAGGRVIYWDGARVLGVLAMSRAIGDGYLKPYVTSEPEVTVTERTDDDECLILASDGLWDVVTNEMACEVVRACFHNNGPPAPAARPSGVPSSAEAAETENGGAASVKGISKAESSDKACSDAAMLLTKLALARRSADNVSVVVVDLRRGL", "assay": "Ser/Thr phosphatase assay, inhibition of OsPP2C09 by receptor", "assay_type": "biochemical", "settings": "ABA ten fold of OsPYL; OsPP2C09 1.8 µM; read at 630 nm"}, "OsPYL2": {"target": "T2, OsPYL2 (Oryza sativa, UniProt Q5Z8S0)", "T2 construct": "gene PYL9; recombinant, E. coli BL21(DE3), pET-15b, Ni-NTA; mainly dimer; residues named: K74, F76, V98, L102, P103, A104, S107, E109, V125, L132, E162, F180, V184, N188", "T2 sequence (Q5Z8S0 1-207)": "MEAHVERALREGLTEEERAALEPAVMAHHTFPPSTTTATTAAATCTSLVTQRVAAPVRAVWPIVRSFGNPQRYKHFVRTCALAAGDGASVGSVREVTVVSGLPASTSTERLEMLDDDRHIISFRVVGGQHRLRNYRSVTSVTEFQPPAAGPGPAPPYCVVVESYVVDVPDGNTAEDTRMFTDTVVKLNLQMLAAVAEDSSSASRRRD", "assay": "isothermal titration calorimetry", "assay_type": "binding"}, "[7]": {"target": "the molecule itself", "assay": "SEC; Superdex-200 HR10/300 GL, 25 mM HEPES pH 7.0, 150 mM NaCl; 500 µL OsPYL (OD280 = 0.75) applied; oligomerization state"}}, "data": [{"molecule": "OsPYL12 (receptor)", "values": [{"measurement": "stoichiometry N", "setting": "[1]", "result": 2}, {"measurement": "stoichiometry N", "setting": "[2]", "result": 2}, {"measurement": "stoichiometry N", "setting": "[3]", "result": 2}]}, {"molecule": "OsPYL1 (receptor)", "values": [{"measurement": "stoichiometry N", "setting": "[4]", "result": 2}, {"measurement": "stoichiometry N", "setting": "[5]", "result": 2}, {"measurement": "stoichiometry N", "setting": "[6]", "result": 2}]}, {"molecule": "CC1=CC(=O)CC(C)(C)C1(O)/C=C/C(C)=C\\C(=O)O", "note": "(stereo in doubt) [(+)-ABA]", "values": [{"measurement": "Ser/Thr phosphatase assay, inhibition of OsPP2C09 by receptor", "setting": "OsPYL11 (with OsPP2C09)", "result": "in the presence of ABA, all of the OsPYLs proteins could completely inhibit"}, {"measurement": "Kd", "setting": "OsPYL2", "result": "~31.3", "unit": "µM"}]}, {"molecule": "OsPYL3 (receptor) ERGRGGVGAEDARGGADEVAARERLEGVVRAHHTFPAAERAAGPGRRPTCTSLVAQRVDAPLAAVWPIVRGFANPQRYKHFIKSCELAAGDGATVGSVREVAVVSGLPASTSTERLEILDDDRHVLSFRVVGGDHRLRNYRSVTSVTEFSSPSSPPRPYCVVVESYVVDVPEGNTEEDTRMFTDTVVKLNLQKLAAVATSSSPPAAGNHH", "values": [{"measurement": "stoichiometry N", "setting": "[7]", "result": 2}]}, {"molecule": "OsPYL2 (receptor, Oryza sativa (japonica cultivar-group), OsPYL2, ABA receptor (PYR1/PYL/RCAR ortholog) of Oryza sativa (japonica cultivar-group); Dimer when alone in solution (SEC, SLS, AU); stands with OsPP2C06 and ABA in the crystallised ternary complex; source: E. coli BL21 (DE3), vector pET-15b, purified (Ni-NTA, Source-15Q, Superdex-200); for the complex coexpressed with His6-OsPP2C06 (132-467) in E. coli BL21 (DE3) and purified with 0.2 mM (+)-ABA) MEAHVERALREGLTEEERAALEPAVMAHHTFPPSTTTATTAAATCTSLVTQRVAAPVRAVWPIVRSFGNPQRYKHFVRTCALAAGDGASVGSVREVTVVSGLPASTSTERLEMLDDDRHIISFRVVGGQHRLRNYRSVTSVTEFQPPAAGPGPAPPYCVVVESYVVDVPDGNTAEDTRMFTDTVVKLNLQMLAAVAEDSSSASRRRD", "values": [{"measurement": "stoichiometry N", "setting": "[7]", "result": 2}]}]}
